The results in this text go back to the NTF2 design screens of Basanta et al. (2020).

This series in a line: protease stability score; higher = more stable; yeast display proteolysis, trypsin and chymotrypsin.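 Also: relative to predicted unfolded state with 0 unfolded-like and 1 meaning tenfold more protease.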
“DEDTELMRHIIERLLRSSKTGDEDSMADLLDPNVRIVNEDERLHGRELASRFMYELRIHHFELTRFKVYDGKIDIDGIHDGEINGVRRRVWVEFISVKVNGKWQIKELRIG” came in with a protease stability score of 1.35.

As for “DEDTELSKHFDDVFAEYVETGDEHSLRHLMDPNTRILVNGVDLVGWELVLDHLDRHLKEMRIKRVTTHEMRIYGDKVTIHSKLKMHIDGRDVDTDTEIIVKKVDGKWIMHFVNLH”, the protease stability score was 2.25.

In the case of “DEDTELVYRIIKRLKEYIKTGDEDSIKELLDPNARIEVGDKEIHGRDRFAHMLVEIWSKDHKVELKDSRTFPNHLEYDGVLREDIEIDGKRIHRTRKLIVLVRKVNGRWYVEEIIFH”, the protease stability score worked out at 2.19.

As to “DEDTENVLRALEQFDEKLLTGDWRSLEELADPHVRIDINGQDIHGRETHSEHFRRIKNLKLEHLDVHSFTVIGNKVELDTEIIGEIDGRRRIFRVRMRILKIDGRWVLHSVEIG”, the protease stability score worked out at 1.46.

In turn, “DEDTEQAERVSHIMLHLYHTGDEEKFNHLADPNVRVEVNGVEIIGRHAFMKHLREIRLHDLRIEEVHIRVFNGRLRIEIKGRMDGHFNGVTKRTEVDILIIVLKVDGRWHVHSFSETIH” came in with a protease stability score of 1.6.

“DEDTEQLEWILKLHLEISRTGDEHSEHHMVDPNTRIEVGDKELHGREEIVKWFAHIRIDHIDIKRYHIFNGRVRIDGRVEGNVDGRETTMRVIFLSDKFNGRWRHRSVIVR”: the protease stability score was 1.53.

The sequence “DEDTEQVERALHLWVKLVQTGNEEVIRHLLDPNVRIIVNGVDYHGRSALDELQRRVDVNTWKRVRLHDASVYNGRMHIDGEIDTQEIVGDKRIIIHTKVDMVSSKVNGKWIFHSMIFH” came in with a protease stability score of 0.848.

With “DEDTESATKALQLFIHLFITGDEEQLLRLLDPNARNDIGDYHRHGREFLEFFVERVKNVTFHLHDMRLELIGDKIHLIIHGDEWVNGVRLRTELVILMEKVNGRWVIRSVRVIFR”, the protease stability score was 1.75.

Take “DEDTEVIERSITHWMKVLETGDWEDIERNADPNARMDINGREFHGREEVSRHLREDLDRLGIERVRVEIKHYRVQGEFIDIHGILRQGEYESKIHVRASKINGKWVLESLEVV”: the protease stability score is 0.078.

For the sequence “DEDTHDNRHALELLLRFLETGDEDSLRELADPNARLSVNGRNQHGREDLFSTWSEMGVDHMEIKSHRIVDGRLLLHGHIKFNGRREDVHIFMVKIDGRWYIEEVKIL”, the protease stability score is 1.56.

Sequence “DEDTHDTKKAVEEFIHTVRTGDEHSLRRQLDPNARVEVGDKEQHGRLFIEWFIRMLGIDNVDVRVHDHHVYDGRVEVDLLLHVDGRDFRVNIVWDKINGQWRNRMVIFR” returned a protease stability score of 1.17.

Take “DEDTHEFRHFIELRRHNLETGNERALAELLDPNVRILFDGVDIVGRDSWIKHLRELGYEQVDSRVNIKRLEIWNGRAHMDGRVRRHFDGKTTEVDVHLVLVKFNGRWVIESIHNH”: the protease stability score was 0.555.

In the case of “DEDTHKLDKHVKEVLTAWETGDEEMLLRLIDPDARITIGDKEVIGMEEALKHWKEIRIKHLELTDFKLVDGQLDSKVQVHSEVNGRRFETTIRIVLHKINGKWRIRSMTFI”, the protease stability score amounted to 1.34.

“DEDTHLAKVVLEIFLHLMRTGDFKETWEYADPHVRIDIGDKHLHGREELARLMEELGIDHFEIRDVHLQGDKLHIRTDVDFNGVRTHVVFIILKVDGRWVLTHVRIE” had a protease stability score of 1.46.

Turning to “DEDTHMMELFNKTLHHVERTGDETLLNKLMDPHARLEIGDKHNHGRENVERERRRLLKELGHTQVEFRIREIRFQGDKLTIHGHTLVNGVHFDIRLLVWKVDGRWHMESFHLE”, the protease stability score worked out at 1.46.

“DEDTHMVERALTLLYKTLHTGDEDLYRELIDPHVRVEINGQELIGRELLIEWFREMVERFPNIRIEIHDIRLFDGRLESDSRLHYGDKSREVHLIARKVNGQWRLESLKVE” came in with a protease stability score of 1.41.

In the case of “DEDTHNASEALEYLWRVIMTGDEEQVERMADPNVRVVFNGKHLHGREWFLRVLLHIRFDRVRIEHIHTQGEKVRTDSKSDIEFDGRRIEVDIEIYIHKINGRWIVKMFIFR”, the protease stability score was found to be 2.89.

In turn, “DEDTHRLELVLDLWSFAMLTGDEETLTKLIDPNMRIEIGDKIAHGREKLHEMLREIRIQIHHVHLDDYRVYGNKITLHVHIRMTLHVDGRTIHTELKTEIIIHKIDGKWVFHKVRFE” showed a protease stability score of 1.28.

For the sequence “DEDTHVMEHALREWSHIFHTGDEDRLLELMDPRTRATVNGVDLHGMEEITRLETEIIRSHGMKFRTFLLEDFKTIDGKIHVHSRLNVDINGKERELRVRIIAKKVNGRWVVTKVEVG”, the protease stability score worked out at 0.952.

For the sequence “DEDTHWIRDALRRYEEMLRTGDEDLFRRLFDPHVRVEINGQENHGMESILKLYRDLVEHLGIKHVQEVELEDVNMIDGVIILHIRVRVRFDGKHETIRMNVVAYKVNGQWRLHELKEG”, the protease stability score turned out to be 1.47.

The sequence “DEDTHYARHIMELIIRNFITGDEDDLLRLMDPNTRLHINGVDNHGREEIKRDLERWWHRYPNITVIIRVEHMTAIDGKAHSEMRVQIHYNGVTYSRETRVILIVINGRLHSVEFRID” came in with a protease stability score of 1.11.

Consider “DEDTKASELAIEILIKILLTGDEDSLNHLFDPNVRLEVGDKQMHGMESMVKFQRHWRVNHTIVKRMEIINIGDKMHIHLVGHINGDFNGKTSEHESHVHILNEKVNGRWLIRSMEIEIR”, for which the protease stability score turned out to be 1.62.

The sequence “DEDTKEADDFTKIWAKSVETGDEDMLKHLADPHVRVEIGDKVFIGRHFWLKVLRHIRVESVHVEDYKVQGEKVEYHVRFEVDINGQKVESTRRMIVRKVNGRWILETVILE” registered a protease stability score of 1.49.

“DEDTKHDEEMFRLVLHLLRTGDEEKLTELADPNVRLEVDIDGRRDTYHGREEMLKWLQELLKRYKNMTIKVHRVSVVNGKAHMDGITKVGDKEFKELRIWVVIDGKIRTIKIEIL”: the protease stability score worked out at 2.27.

Sequence “DEDTKIIKEMLDEMVHATLTGNEDLLRELVDPEVRIRVGDKEKHGWEFLFHMLKHLRIDRSEITIHSIRVVNGRVEVDGELRIIFTIGDKHIEFSTRVHIILEKVDGRWRVQALLFH” registered a protease stability score of 0.688.

The sequence “DEDTKIVEEAIRYHKHNIETGNEEYMDKLADPNTRLEINGVEFHGRESYNHWMRRVLEHWRFHDIKIDSVDVFNGRVRFYGRRIVKIGEFTMIFEITYISTKFNGRWILEEEENR” came in with a protease stability score of 0.564.

“DEDTKKAEEVLRMFDEAFRTGDEDILRELMDPNVRYVINGREFHGREEVTNAMRELHHRFDHFKSTHIKDHKIQGDKMDVHSTLTYHVNGKDIHVDSREVWVKVNGKWHLRKIIIH” registered a protease stability score of 2.24.

“DEDTKLAKEAWRHLMENLHTGNEEIILHLVDPNAKFRYGEFEHHGRESLKWFRKRYDHIEVTHVEFHHVQVQGDKLIYHGTLEMSFEQGNKHEHWEYNVLLISRKINGRWIVKSIEVN” had a protease stability score of 0.953.

Sequence “DEDTKLAQKMSKLLNHAIHTGDEKILRQLLDPHVRVHIGDKEHHGWKEYEKIMQEWRFEHVETEHVSLVNGRLHIDSHIVGNIDGRRTEVETHIIIKKFDGRWIDTEFHMK” came in with a protease stability score of 0.583.

For the sequence “DEDTKLMEEVIRLHMELLKTGNWDELLHMLDPNAKFEAEGRDKHGWHNFLREYKHFYEELGFKHSRVHHVRVQGDKLEMDLRINVGDKEFETNLEVLKVNGRWLIKFVRID”, the protease stability score was 1.58.

In turn, “DEDTKLSKDAIRTFLESMVTGDEHILHRLADPNVKYSQGDKEYHGWEYAREFWSRVKNIRFHLKHYEVYGNKVHIEGELHVDGRHFEVHIVIIKFDGRWKIESHEIK” showed a protease stability score of 1.19.

Turning to “DEDTKLVEEFLRDWLRALLTGDEEHLHKLLDPNTRVEINGQEFHGREMEVELMRHWRLDHIDIREIRITIIGNKVENHVRGRVDGEFDGRKINRETKLVNYVVKVNGRWLFHSMELRTH”, the protease stability score was 1.35.

On to “DEDTKMSEEALRILVEIWRTGDEDRFLELADPHTRILINGRELHGMEFFVTWLRKVKNLKIERIQLDHVRFIDGRAELETTIRLRYGDKHDDLTFKFISDKFDGRWVLSEIIII”, for which the protease stability score amounted to 2.15.

“DEDTKRAEHIMRMFIHSMLTGDEKTTHELLDPEARVNINGVDLHGRETLLEHHHRWLHELRIEDMHTEHYEVQGDYVHLHTREVVVVDGRRIELTTTFLLLKVDGRWVWTHIHVK” registered a protease stability score of 0.997.
